Molecular target: YB-1 (Δ1-2) (UniProt P67809 1-230)
Test: fluorescence anisotropy; DNA binding similar to full-length; EC50 within 1100-3100 nM, exact value only in figure; 50 mM Tris-HCl pH 8.0, 40 mM NaCl, 1 mM DTT, 100 ug/ml BSA, 50 nM FAM-DNA, 25 C (anisotropy). PAR EMSA rows left out: PAR is a heterogeneous polymer without a defined nucleic acid sequence
Settings: protein: recombinant; label: 5'-FAM on strand 1; nicked 32-bp duplex, blunt ends; nick opposite strand 1 positions 15/16

YB-1 (Δ1-2), sequence (P67809 1-230, stated change not applied): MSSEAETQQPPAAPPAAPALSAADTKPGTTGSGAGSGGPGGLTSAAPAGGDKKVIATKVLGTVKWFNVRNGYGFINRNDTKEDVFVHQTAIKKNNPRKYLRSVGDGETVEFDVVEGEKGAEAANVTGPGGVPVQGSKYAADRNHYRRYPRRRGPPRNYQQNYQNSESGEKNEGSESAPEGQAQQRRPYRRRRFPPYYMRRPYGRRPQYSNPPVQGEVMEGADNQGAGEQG

B1: Nick (FAM-labeled nicked DNA duplex) (dsDNA)
DNA 1: CCGCTATTTCAACCCTTTGCAGTCCCAGAAGG
DNA 2: GGGTTGAAATAGCGG
DNA 3: CCTTCTGGGACTGCAAA
modifications: phosphate on the 17-mer (printed as 5'-p…)
binding result: binds
